# Measured values taken from patent US11180762B2, “Methods and compositions for the treatment of cancer” (CHILDREN'S MEDICAL CENTER CORPORATION, priority 2014, dated 2021).
# B1: EpCAM-AsiC: EpCAM aptamer-siRNA chimera, siRNA cargo not specified at the place; 2'-fluoropyrimidines, 3'-dTdT (nucleic acid)
# sense: GCGACUGGUUACCCGGUCGUUUUGAAGAAGAUCACCCUCCUUATT
# antisense: UAAGGAGGGUGAUCUUCUUCATT
# modifications: DNA at T, 2'-fluoro at CU, RNA at AG, backbone not given here; further chemistry not fully specified
# notes: EpCAM aptamer-siRNA chimera, siRNA cargo not specified at the place; 2'-fluoropyrimidines, 3'-dTdT
# B2: PLK1 EpCAM-AsiC: EpCAM aptamer linked by U-U-U to PLK1 siRNA sense strand (SEQ ID NO: 1), annealed to antisense strand (SEQ ID NO: 2) (nucleic acid)
# sense: B1 sense
# antisense: UAAGGAGGGUGAUCUUCUUCATT
# modifications: DNA at T, 2'-fluoro at CU, RNA at AG, backbone not given here; EpCAM aptamer fused to sense strand
# Legend:
# MB468-luc tumors = experiment: Tumor inhibition, EpCAM+ MB468-luc xenograft; assay type: in vivo, nude mice; conditions: for growth of EpCAM+ MB468 tumors: 5 mg/kg sc every 3 d (72 h) for 2 wks
# Description: For tumor inhibition studies, MB468-luc (5×10^6) and MB231-luc-mCherry (5×10^5) cells trypsinized with Tryple Express (Invitrogen), resuspended in a 1:1 WIT-Matrigel solution and injected subcutaneously in the flank of 8-week old female Nu/J mice (Stock #002019, Jackson Laboratories). Tumors size was analyzed daily using the IVIS Spectra, after 5 days tumors were clearly visible. […] Mice were treated every 72 h for 14 days.
# [1] = test system: co-cultures of GFP− TNBC cells and GFP+ BPE cells; experiment: Co-culture of tumor cells with GFP+ BPE cells, relative survival by flow cytometry; assay type: cell-based, human
# Description: To determine whether EpCAM-AsiCs specifically target EpCAM+ cells when mixed with EpCAM^dim non-transformed epithelial cells, we incubated co-cultures of GFP− TNBC cells and GFP+ BPE cells with PLK1 EpCAM-AsiCs or medium and used GFP fluorescence to measure their relative survival by flow cytometry 3 days later (FIG. 2D, 2E). […] Thus PLK1 EpCAM-AsiCs are selectively cytotoxic for EpCAM+ tumor cells when mixed with normal cells.
# To understand whether EpCAM-AsiC can specifically target basal A and luminal breast cancer cells and inhibit proliferation we designed an EpCAM-AsiC targeting PLK1. PLK1 is a known trigger for […] transition. The effect of EpCAM-AsiC targeting PLK1 on cell proliferation was tested on 10 breast cancer cells representative of basal A, B and luminal cell lines. […] A correlation was seen between EpCAM expression levels and cell viability (FIG. 27B). To understand if EpCAM-AsiC will specifically target EpCAM+ cells in a mix cell population HCC1937 (EpCAM+GFP−) cell were co-cultured with BPE (EpCAM-GFP+) cells and treated with EpCAM-AsiC targeting PLK1 or untreated. […] The co-culture was repeated with other basal A cell lines (MB468 and HCC1143) similar reults were obtained. When BPE cells were grown in a co-culture with basal B cell (MB231) the ratio between BPE and MB231 cells stayed the same regardless of the EpCAM-AsiC treatment (66% BPE and 33% MB231 in untreated co-culture and 61% BPE and 38% MB231 following EpCAM-AsiC treatment) (FIG. 27C, 27D).
# [2] = test system: eGFP expression in BPLER and BPE cells; experiment: eGFP knockdown in GFP-expressing BPLER and BPE cells; assay type: cell-based, human; conditions: AsiC 4 μM without lipid; siRNA 100 nM with Dharmafect; 72 hours
# Description: FIG. 21A depicts the design of EpCAM-AsiC, containing an EpCAM aptamer and a PLK1 siRNA (sense strand disclosed as SEQ ID NO: 1 and antisense strand disclosed as SEQ ID NO: 2). […] EpCAM-AsiC targeting GFP was Alexa647 or Cy3 labeled at the 3′ end of the antisense siRNA strand and incubated with BPLER and BPE cells. Uptake was assessed 24 hours later by flow cytometry (FIG. 21C). Data are representative of 3 independent experiments. Cy3 and Alexa647-labeled EpCAM-AsiC was taken up by MB468 and BPLER (EpCAM+ cells) respectively and not by BPE (EpCAM−). MFI of each peak is shown (mock, gray). FIG. 21D depicts graphs of experiments in which, to test for gene silencing, BPLER and BPE were treated with EpCAM-AsiC targeting GFP (4 μM) and compared to Transfection controls using Dharmafect and GFP-siRNA (100 nM). Knockdown was assessed by flow cytometry 72 hours after incubation. Controls were mock and Dhrmafect only treatment (lipid). (n=4).
# For uptake and silencing treatment, cells were plated at low density (10,000 cells/well in 96-well plates) and treated immediately. All AsiC and siRNA treatments were performed in either OptiMEM or WIT medium. Cell viability was assessed by CellTiter-Glo (Promega) or by Trypan-Blue staining in 96-well plates.
# Cells were transfected with Dharmafect I per the manufacturer's protocol. See FIG. 9 for all siRNA sequences.
# [3] = test system: human breast tumor and normal breast tissue biopsies; experiment: Uptake in human breast tumor and normal tissue biopsy explants; assay type: cell-based; conditions: 2 μM; 24 h; flow cytometry of single cell suspensions
# Excerpt: It was next examined whether EpCAM-AsiCs concentrate in human breast tumors relative to normal breast samples within intact tissues. Paired normal tissue and breast tumor biopsies from 3 breast cancer patients were cut into cubes with −3 mm edges and placed in Petri dishes. The tumor sample cells were all EpCAM^bright and the normal tissue cells were EpCAM^dim (FIG. 3A). Fluorescently labeled Alexa647-siRNAs (not expected to be taken up by either normal tissue or tumor), Alexa647-cholesterol-conjugated siRNAs (chol-siRNAs, expected to be taken up by both), or Cy3-EpCAM-AsiCs were added to the culture medium and the tissues were incubated for 24 hr before harvest. The Cy3 signal of the AsiC, which could be visualized by the naked eye, concentrated only in the tumor specimens and was not detected in normal tissue (FIG. 3B). To quantify RNA uptake, flow cytometry analysis was performed on washed single cell suspensions of the tissue specimens (representative tumor-normal tissue pair (FIG. 3C), mean±SD of triplicate biospies from 3 EpCAM^bright paired breast tumor-normal tissue samples (FIG. 3D)). […] Thus, within intact tissue, EpCAM-AsiCs are selectively delivered to EpCAM^bright tumors relative to normal tissue. […]
Molecule,injections until complete tumor regression (MB468-luc tumors; very aggressive TNBC xenograft model),"decrease of the proportion of surviving tumor cells ([1]; BPE mixed with epithelial TNBC lines, after 3 d)","eGFP knockdown, BPLER vs BPE [2]",uptake by breast tumor vs normal tissue [3],time at which tumors completely disappeared in many mice (MB468-luc tumors; 5 mg/Kg every 72 h),time of first tumor shrinkage (MB468-luc tumors; 5 mg/Kg every 72 h),growth of EpCAM+ MB468 tumors (MB468-luc tumors),growth of EpCAM+ MB468 tumors (MB468-luc tumors; listed as PLK1-targeting AsiCs),growth of EpCAM+ MB468 tumors (MB468-luc tumors; listed as PLK1 EpCAM-AsiCs),proportion of surviving EpCAM+ basal-A tumor cells ([1]; 3 days),survival of an EpCAM− basal-B cell line in co-culture ([1]; 3 days),"share of EpCAM− (BPE) cells in co-culture after treatment ([1]; HCC1937 + BPE, untreated 41% BPE)","share of EpCAM+ (HCC1937) cells in co-culture after treatment ([1]; HCC1937 + BPE, untreated 59% HCC1937)","share of MB231 cells in co-culture after treatment ([1]; MB231 + BPE, untreated 33% MB231)","share of BPE cells in co-culture after treatment ([1]; MB231 + BPE, untreated 66% BPE)"
B1,3 injections,7 fold,uniform and selective for EpCAM+ cells,concentrated only in the tumors,,,,,,,,,,,
B2,,,,,14 days,6 days,regress only after treatment with PLK1 EpCAM-AsiC,rapidly completely regressed,caused complete tumor regression of EpCAM+ TNBC xenografts,greatly reduced the proportion of surviving EpCAM+ basal-A tumor cells,had no effect on survival of an EpCAM− basal-B cell line,83%,17%,38%,61%
